{"source": "paper PMC3863775", "assay_in_all_cases": "cryo-EM structure; single-particle cryoEM of the icosahedral head of purified BPP-1 virions, frozen hydrated; 50 mM Tris-HCl, 250 mM NaCl, 1 mM MgCl2, pH7.5; ~3.5 Å (capsid), ~3.4 Å (averaged CP and MCP)", "key": {"[1]": {"biological_target": "cement protein (CP) Bbp16 of bacteriophage BPP-1 (Bordetella bacteriophage BPP-1)"}, "[2]": {"biological_target": "major capsid protein (MCP) Bbp17 of bacteriophage BPP-1 (Bordetella bacteriophage BPP-1)"}, "[3]": {"biological_target": "major capsid protein (MCP) Bbp17 of bacteriophage BPP-1 (Bordetella bacteriophage BPP-1)", "remark": "listed apart in the source"}}, "note": "Where two headings read alike, the source gives them in different places.", "data": [{"substance": "cement protein (CP) Bbp16 of bacteriophage BPP-1 (natural protein)", "values": [{"measurement": "stoichiometry N", "setting": "[1]", "value": 2}]}, {"substance": "major capsid protein (MCP) Bbp17 of bacteriophage BPP-1 (natural protein)", "values": [{"measurement": "stoichiometry N", "setting": "[2]", "value": 6}, {"measurement": "stoichiometry N", "setting": "[3]", "value": 5}]}]}
